Reference: the nanobody polyreactivity screen of Harvey et al. (2022)

Assay: yeast display, Sf9 membrane polyspecificity reagent, FACS + sequencing; frameworks hold sequencing errors
Summary of the method: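 In a synthetic yeast display library (Saccharomyces cerevisiae BJ5465), nanobody expression was induced with galactose for 36–48 hours. FACS gates were set low and high (top ~1%) using anti-HA fluorescence for expression and streptavidin fluorescence for binding of the Sf9 membrane reagent. Each polyreactivity label is drawn from the gate of origin.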

Sequence	polyreactivity (PSR sort gate)
QVQLVESGGGLVQAGGSLRLSCAASGRIFRINAMGWYRQAPGKERELVASITSRAGSTYYADSVKGRFTISRDNAKNTVYLQMNSLKPEDTAVYYCAAASRRGYYYWGQGTQVTVSS	high polyreactivity
QVQLQESSGGLVQAGGSLRMSCAASGTIFHFHIMGWYRQAPGKEREFVAAISYGTSTYYADSVKGRFTISRDNAKNTVYLQMNSQKPEDTGVYYCAVYDYLEVYCWYWGQGTQVTVSS	low polyreactivity
QVQLGESGGGLVQAGGSLRLTCAAYGRIYGGNAMGWYRQATGKEWELDAGISRRGGSTYYADSVKGRFTISRDNEKNTVYLQMNRLKPEDTAVYYCYAYYRYSVFAEKYDYWGQGTHVTVSS	high polyreactivity
QVQLVESGGGLVPAGGSRRLSCAASGSIFTSYAMGWYRQAPGKERELVAAISSSGGSTYYADSVSGRFTISRDNAKQTVYFQMNSLKPEDTAVYYCAARYKGVYAPHYYWGQGTQVTVSS	high polyreactivity
QVQLVESGGGLVQAGGSLRLSCAASGITFGYYAMGWYRQAPGKERELVASISWSGDSTYYADSVKGRFTISRDNAKNTVYLQMNSLKPEDTAVYYCNRGSSWEYGAEYNYWGQGTQETVSS	low polyreactivity
QVQLVESGGGLVQAGGSLRLSCAASGFIFFKYVMGWYRQAPGKERELVAAISTTGGRTYYADSVKGRFTISRDNAKNTVYLQMNSLKPEDTAVYYCAADYPVWNHGFDYWGQGTQVTVSS	high polyreactivity
QVQLVESGGGLVQAGGSLRLSCAASGFTFYEYAMGWYRQAPGKERELVAAITQTGVRTYYADSVKGRFTISRDNAKNTVYLQMNSLKPEDTAVYYCAADDPRQRPRGHYDYWGQGTQVTVSS	low polyreactivity
QVQLVESGGGLVQAGGSLRLSCAASGRIFYRYGMGWYRQAPGKERELVASITRGGSTYYADSVKGRFTISRDNAKNTVYLQMNSLKPEDTAVYYCNAQTRYRYQYGYLGGTGYNYWGQGTQVTVSS	low polyreactivity
QVQLVESGGGLVQAGGSLRLSCAASGSISYEYAMGWYRPAPGKERELVASIDSDGAGTYYADSVKGRFTISRDNAKNTDYLQMNSLKPEDTAVYYCNAEWYYPYYYSRMDYWGQGTQVTVSS	low polyreactivity
QVQLVESGGGLVQAGGSLRLSCAASGLIFSYYVMGWYRQAPGKERELVAAISRIGGSTYYADSVKGRFTISRDNAKNTVYLQMNSLKPEDTAVYYCAAYDLSPGSLTGGYYWGQGTQVTVSS	high polyreactivity
QVQLVESGGGLVQAGGSLRISCAASGSTFKIYAMGWYRQAPGKERELVAAITGGGSSTYYADSVKGRFTISRDNSKNTVYLQMNSLKPEDTAVYYCAADLSGADSTGDYYYWGQGTQVTVSS	low polyreactivity
QVQLVESGGGLVQAGGSLRLSCAASGSIFPYNPMGWYRQAPGEFGAAISYSSGSTYYADSVKGRFTISRDNAKNTVYLQMNSLKPEDTAVYYCAAGLPKYEHEYWGQVTQVTVSS	low polyreactivity
QVQLVESGGGLVQAGGSLRLSCAASGSTFYRNAMGWYRQAPGKERELVATITFNGGSTYYADSVKGRFTISRDNAKNTVYLQMNSLKPEDTAVYYCAKSHAIYYWWDESWGQGTQVTVSS	low polyreactivity
QVQLVESGGGLVQAGGSLRLSCAASGSIFRINAMGWYRPARGKERELVAATTKYADSVKGRFTISRDNAKNTVYLQMHSLKPEDTAVYYCAAAPIGGSSHPYDYWGQGTQVTVTS	low polyreactivity
QVQLVESGGGLVQAGGSLRLICAASGIIFAVYARGCYRQAPGKERELVAAISTSGGRTDYADSVKGRFTISRDNAKNTVYLQMNSLKPEDTAVYYCAAEYVGKGTPDDYDYWGQGTQVTVSS	high polyreactivity
QVQLVESGGGLVQAGGSLRLSCAASGFTFRDYAMGWYRQAPGKEREFIADITFSGDNTRYADSVKGRFTISRDNAKNTVYLQMNSLKREDTAVYYCNADYLVSWLQFDYWGQGTQVTVSS	low polyreactivity
QVQLVESGGGLVQAGGSLRLSCAASGSIFVANAMGWYRQAPGKERELVAVISSGGGSTSYADSVKGRFTISRDNAKNTVYLQMSSLKPEDTAVYDCTRRRYDAGSTMGYWGQGTQVTVSS	low polyreactivity
QVQLVESGGGLVQAGGSLRLSCAASGSIFESNAMGWYRQAPGKEREFVAAIDQNDGSTNYADSVKGRFTISRDNAKNTVYLQMNSLKPEDTAVYYCAKYWGYLGYYEFDYWGQGTQVTVSS	low polyreactivity
QVQLVESGVGLDQARVSLRLSCAASGFTFGQYVMGWYRQAPGKEREFVAIISRSVDSTYYADSVKGRFTISRDNAKNTVYLQMNSLNPEDTAVYYCNARGKRRGKIPYSSYASSYDSWGQGTQVTVSS	high polyreactivity
QVQLQESGGGLVQAGGSLRLSCAASGSIFHLHIMSWYRHAPGKERESVAAISYGTSTYYADSVKCRFTICRDNAKNTVYLQINIPKPDDTAVYYCAALFLVSKHHHYWGEGTQVTVSS	low polyreactivity
QVQLVESGGGLVQAGGSLRLSCAASGRIFTRNAMGWYRQAPGKERQLVAAISHSGGSTYADSVKGRFTISRDNAKNTVYLQMNSLKPEDTAVYYCAADSPYGYYEGDYCGQGTQVTVSS	low polyreactivity
QEQLQESGGGQVQAGGSLLLSCAASGNIIRYYYMGWYRQAPGKERELVAAITYGTSTNYADSVKGRFTISRDNAINTVYLQMNSLKPEDTAVYYCAVDVNYGDPLDNWGQGTQVTVSS	high polyreactivity

Sequence	polyreactivity (PSR sort gate)
QVQLVESGGGLVQAGGSLRLSCAASGAMGWYRQAPGKERELVAGITSGGSTNYADSVKGRFTISRDNAKNTVYLQMNSLKPEDTAVYDCNAVGGPRWLSVGWPYDYWGQGTQVTVSS	low polyreactivity
QVQLGESCGRLVQAGGSLRLSCADSGLTFSVYAMGWYRQSPGKETELVAAISYSGDSTYADSVKGRFTISRDNAKNTVYLQMNSLKPEDTAGYYCHAPLVHQGYRRWYDYWGQGTQVTVSS	low polyreactivity
QVQLVESGGGLVQAGGSLRLSCAASGFTFTRYALGWYRQAPGKERELVAAISWSGGSTYYADSVKGRFTISRDNAKNTVYLQMNSLKPEDTAVYYCAKRGTVRQGGYGYWGQGTQVTVSS	high polyreactivity
QVQLVESGGGLVQEGGSLRFSCAASGSTFHSYAMGWYRQAPGKERELVAAISTSGGTTYYADSVKGRFTISRDNAKNTVYLQMNSLKPEDTAVYYCAARRVTSPFGTDSWGQGTQVTVSS	low polyreactivity
QVQLVESGGGLVQAGGSLRLSCAASGYIFSGYAMGWYRQAPGKERELVAAISSNGGSTYYADSVKGRFTISRDNAKNTVNLQMNSLKPEDTAVYYCNRGLAARVGRGDYWGQGTQVTVSS	low polyreactivity
QVQLVESGGGLVQAGGSLRLSCAASGRIFVGYAMGWYRQAPGKERELVAAISRSGARTYYADSVKGRFTISRAIAKNTVYLQMNSLKPVDTAVYYCNTVKVLIYSWGQGTQVTVSS	high polyreactivity
QVHLVESGGGLVQAGGSLRLSCAASGRTFKYNTMGWYRQAPGKERELVAVISRSGGRTYYADSVKGRFTISRDNAKNTVYFQMNSLKPEDTAVYYCAKGIPYSDPQSAYDDYWGQGTQVTVSS	high polyreactivity
QVQLVESGGCLVQAGGSLRLSCAASGSTFRHYAMGWYRQQPGKERELVASISKSAGRTYYADSVKGRFTISRDIAKNTVNLQMNSLKPEDTAVYYCAAYRIHVYPAGLAWQYYYELDYWGQGTQLTVSS	high polyreactivity
QVHLVESGGGLVQAGGSLRLSCSASGSTFYIYTMGCYRQAPGKARELVAAISSSGGSTYYADSVKGRFTISRDNAKNTVYLQMNILKPEDTAVYYCAADPWVRLEYDYWGQGTQVTVSS	low polyreactivity
QVQLVESGGGLVQAGGSLRLSCAASGSTFEYNAMGGYRQAPGKERELVASSTNYADSVKGRFTISRDNAKKTVYLQMTSLKPEDTAVYYCAREQGVNRNHDYWGQGTQVTVSS	low polyreactivity
QVQLVESGGGLVQAGGSLRLSCAASGFTFTRYAMGWYRQAPGKERELVAVITSSGTSTYYADSVKGRFTISRDNAKNTVYLQMNSLKPEDTAVYYCAARTHRRDFYYWGQGTQVTVSS	high polyreactivity
QVQLVESGGGLVQAGGSLRLSCAASGSIFLIYAMGSYRQAPGKERELVATINRGDNTYYADSVKGRFTISRDNAKNTVYLQMNSLKPEDTAVYYCAADVPWGWWDSDFSDNYYWGQGTQVTVSS	low polyreactivity
QVQRVESGGGLDQARGSLRLSCAASGITLDRYDMGWYRQAPGKERELVAAISRSGVRTYYADSVKGRFTISRDNAKNTVYLQRNSLKPEDPAVYYCNKGYARRYASGYDYWGQGTQVTVSS	high polyreactivity
QVQLVESGGGLVQAGGSLRLSCAASGGIFGWYTMGWYRQAPGKERELVAAINFSGSRTYYADSVKGRFTISRDNAKNTVYLQMNSLKPEDTAVYYCNAVYHQFREEYWGQGTQVTVSS	high polyreactivity
QVQLEESGGGLVQAGGRLRLSCAASGRTFGANAMGWYRQAPGKERELVATIRRGGSTYYADSVKGRFTISRDNAKNTFYLQMHSLKPEDTAVYYCATQYHSYAKEYDYWGQGTQVTVSS	low polyreactivity
QVQIVESGGGLVQAGGSLRLSCAASGSTFNYNAMGWYRQAPGKERELVAAITFTGGSTYADSVKGRFTISRDNAKNTVYLQMNSLKPEDTAVYYCAATIQGHDYLGTGYDYWGQGTQVTVSS	low polyreactivity
QVQLLESGGGLVQAGGSLRLRCASSGSISDWNAMGWYRQAPGKERELVAAISRGGNTNYADSVKGRFTISRDNAKNTVYLQMNSLKPEDTAVYYCAAGHGSLRYNYWGQGTQVSVSS	high polyreactivity
QVQLVESGGGLVQAGGSLRLSCAASGSIFTPYAMGWYRQAPGKEREVVATITWTGGSTYYADSVKGRFTISRDNAINTVYLQMNSLKPEDTAVYYCAADTYRSGRAYYYWGQGTQVTVSS	low polyreactivity
QVQLVESGGGLVQAGGSLRLSCAASGLIFITYAMGWYIQAPGKERELVATITLRGGSTYYADSVKGRFTISRDNAKNTVYLQMNSLKPEDTAVYYCAADVGYWGRSRGYPSDDYDYWGQGTQVTVSS	low polyreactivity
QHQLGESGGGLVQAGGRLRLSCAASGRIFHVSAMGWYREAPGKERELVAAISSGDRTYYADSGKGRFIISRDNAKNSVYLQLNSLKPEDTAVYYCWRYPAAESNYWGQGTQVTVSS	low polyreactivity
QVQLVESGGGLVQAGGSLRLSCAASGITFVIYAMGWYRQAPGKEREFVAGINWSTGSTYYADTVKGRFTISRDYAKNTVYLQMNSLKPEDTAVYYFNVDAIINAIGAYWYDFDYWGQGTQVTVSS	low polyreactivity
